In patent US20130045539 one finds activity (% targeted clones) data, which are given here for one substance.

The data set concerns hsRAG1 engineered meganuclease (I-CreI-derived) (artificial (I-CreI backbone, Chlamydomonas reinhardtii?)). As to the kind of experiment: cell_activity. As to conditions: HEK-293, meganuclease-driven targeted integration at RAG1; other lines 7-16%; indirect readout of cleavage.

“human RAG1 locus meganuclease target site” came in with an activity (% targeted clones) of 44.
